Measured values published in doi:10.1101/481887.

How the values were obtained:
Gly-C2-iLID = assay: confocal imaging of light-induced recruitment to GUV membranes
[1] = target: COPY^o2 (Atto532-stathmin-Atto647N); assay: other fluorescence titration
phosphorylated COPY^o2 = assay: other fluorescence titration

Kd (Gly-C2-iLID) [nM] | KD, high affinity site [1] [nM] | KD, low affinity site [1] [µM] | k off,stath (1:1 stathmin-tubulin complex; site not named) [1] [s⁻¹] | k on,stath (1:1 stathmin-tubulin complex; site not named) [1] [s⁻¹] | stoichiometry N [1] | k off,p-stath (1:1 phosphorylated stathmin-tubulin complex; site not named) (phosphorylated COPY^o2) [s⁻¹] | k on,p-stath (1:1 phosphorylated stathmin-tubulin complex; site not named) (phosphorylated COPY^o2) [s⁻¹] | Substance
360 | – | – | – | – | – | – | – | SspB (Stringent starvation protein B) (from UniProt P0AFZ3 1-165) (natural protein)
– | 30 | 2 | 0.048 | 16 | 2 | 2.3 | 1.8 | α,β-tubulin dimers (from UniProt P02550 1-451; P02554 1-445) (complex)
